Measurements published in publication PMC2816707.
Numbering of substitutions follows the chain as printed. Numbers in names are those of the source.

Target: humanized EBV321
Assay: ELISA
Details: chain shown with the change; point at the highest antibody concentration, about 13.3 nM (read from x axis); VEGF captured on ELISA plate; parent: est. 0.66; read off a plot

B1: rabbit IgG Fc-hVEGF (human VEGF165) fusion protein, wild type, P15692-4 G88A (protein)
chain: APMAEGGGQNHHEVVKFMDVYQRSYCHPIETLVDIFQEYPDEIEYIFKPSCVPLMRCGGCCNDEGLECVPTEESNITMQIMRIKPHQAQHIGEMSFLQHNKCECRPKKDRARQENPCGPCSERRKHLFVQDPQTCKCSCKNTDSRCKARQLELNERTCRCDKPRR
  response: 0.73 OD (405nm)

B2: rabbit IgG Fc-hVEGF (human VEGF165) fusion protein, wild type, P15692-4 I46A (protein)
chain: B1 chain with I46A, A88G
  response: 0.7 OD (405nm)
